We go through two molecules from US20230340090A1 (published 2023).

The experiment deals with T1, TDP-215 peptide GDVMDVFI (human).
T1 construct: same ELISA method as for the biotinylated 15-mers
T1 peptide: GDVMDVFI
Nature of the experiment: indirect ELISA on 8-mer peptide library. The method, then:
Serum-free supernatants were harvested from stable hybridomas. The supernatants containing antibodies of interest were then screened by an indirect ELISA assay to determine epitopes. Epitopes were mapped using a library of TDP-43 15-mer peptides. Briefly, 96-well streptavidin-coated 96-well ELISA plates were incubated with 5 μg/mL of biotinylated 15-mer peptides spanning the amino acids (aa) 199-285 of human TDP-43 with 9 as offset and 6 as overlap. Plates were washed thoroughly with 0.05% Tween-20/PBS and then blocked with 1% bovine serum albumin (BSA) in 0.05% Tween-20/PBS for 1 hour at 37° C. The antibody contained in the hybridoma supernatant was then added at the indicated dilutions, and incubated for 2 hours at 37° C. after which the plates were washed as described previously. An AP-conjugated anti-mouse IgG secondary antibody (Jackson ImmunoResearch Laboratories, United Kingdom) was added at 1/1000 dilution in 0.05% Tween-20/PBS for 1 hour at 37° C. After the final wash, plates were incubated with pNPP (Sigma-Aldrich, Switzerland) an AP substrate solution, and read at 405 nm using an ELISA plate reader (Tecan).
Furthermore, antibodies were tested using an indirect ELISA on a peptide library of 8-mer peptides with 7 an overlap covering the sequence of human TDP-43 from aa 210 to aa 231, using the same ELISA method as describe previously in this section.
In general terms: In an ELISA, binding on a coated surface is turned into a signal by an enzyme label.

B1: ACI-7062-415H10-Ab2 (antibody, IgG3, V domains shown)
VH: DVQLVESGGGLVQPGGSRKLSCAASGFTFSSFGMHWVRQAPEKGLEWVAYISSGSSNIYYTDTVKGRFTISRDNPKNTLFLQMTSLRSEDTAIYYCARSGTTVPFDYWGQGTTLTVSS
VL: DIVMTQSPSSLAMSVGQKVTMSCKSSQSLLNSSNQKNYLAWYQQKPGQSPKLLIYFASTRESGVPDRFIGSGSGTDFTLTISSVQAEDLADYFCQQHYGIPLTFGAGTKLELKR
notes: Mouse hybridoma antibody, IgG3, kappa; also called 415H10B7; clone 17
Turning to B1, the binding result is “binds”.

B2: ACI-7062-404D6-Ab2 (antibody, IgG3, V domains shown)
VH: QVTLKESGPGILQPSQTLSLTCSFSGFSLSTYGIGVGWIRQPSGKGLEWLAHIWWNDYKYYNTALKSRLTISKDTSNNRVFLKIASVDTADTATYYCARVYGNLYYFDYWGQGTTLTVSS
VL: DVLMTQTPLSLPVSLGDQASISCRSSQSIVHGSGNTYLEWYLQKPGQSPKLLIYKVSNRFSGVPDRFSGSGSGTDFTLRISRVEAEDLGVYYCFQGSHVPTFGAGTKLELKR
notes: Mouse hybridoma antibody, IgG3, kappa; also called 404D6E11; clone 4
Consider B2, for which the binding result is on record as “binds”.
